# From publication PMC10127515, “Biocatalytic Synthesis of Homochiral 2-Hydroxy-4-butyrolactone Derivatives by Tandem Aldol Addition and Carbonyl Reduction” (ACS Catalysis, 2023)
# T1: KPREcoli (ketopantoate reductase from E. coli) (Escherichia coli, UniProt P0A9J4)
# T1 construct: gene panE; recombinant wild type; tags and purification only in the supplement
# T1 sequence (P0A9J4 1-303): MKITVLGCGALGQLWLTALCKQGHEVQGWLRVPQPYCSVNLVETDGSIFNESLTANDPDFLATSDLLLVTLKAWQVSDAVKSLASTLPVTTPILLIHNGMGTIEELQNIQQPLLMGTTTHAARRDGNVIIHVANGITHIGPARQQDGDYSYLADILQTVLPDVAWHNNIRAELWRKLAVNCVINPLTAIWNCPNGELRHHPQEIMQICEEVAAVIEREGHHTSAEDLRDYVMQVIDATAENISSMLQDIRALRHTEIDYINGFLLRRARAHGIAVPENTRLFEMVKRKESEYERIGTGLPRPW
# What was measured:
# [1] = molecular target: T1, KPREcoli (ketopantoate reductase from E. coli); assay: NADPH oxidation at […] nm, continuous; assay type: biochemical; conditions: NADPH 0.16 mM; 50 mM Tris-HCl pH 8.0; 30 °C; substrate inhibition
# purified protein [2] = substrate: C[C@@H](CO)C(=O)C(=O)O; assay: purified protein; assay type: biochemical, Pseudomonas syringae group genomosp. 3; conditions: NADPH 0.16 mM, 50 mM Tris-HCl pH 8.0, 30 °C
# purified protein [3] = substrate: CC[C@@H](CO)C(=O)C(=O)O; assay: purified protein; assay type: biochemical, Pseudomonas syringae group genomosp. 3; conditions: NADPH 0.16 mM, 50 mM Tris-HCl pH 8.0, 30 °C
# purified protein [4] = substrate: O=C(O)C(=O)C[C@@H](O)CO; assay: purified protein; assay type: biochemical, Pseudomonas syringae group genomosp. 3; conditions: NADPH 0.16 mM, 50 mM Tris-HCl pH 8.0, 30 °C
# purified protein [5] = substrate: O=C(O)C(=O)CCO; assay: purified protein; assay type: biochemical, Pseudomonas syringae group genomosp. 3; conditions: NADPH 0.16 mM, 50 mM Tris-HCl pH 8.0, 30 °C
# purified protein [6] = substrate: C[C@H](CO)C(=O)C(=O)O; assay: purified protein; assay type: biochemical, Pseudomonas syringae group genomosp. 3; conditions: NADPH 0.16 mM, 50 mM Tris-HCl pH 8.0, 30 °C
# purified protein [7] = substrate: C=CC[C@@H](CO)C(=O)C(=O)O; assay: purified protein; assay type: biochemical, Escherichia coli; conditions: NADPH 0.16 mM, 50 mM Tris-HCl pH 8.0, 30 °C
# purified protein [8] = substrate: CC(C)(CO)C(=O)C(=O)O; assay: purified protein; assay type: biochemical, Escherichia coli; conditions: NADPH 0.16 mM, 50 mM Tris-HCl pH 8.0, 30 °C
# purified protein [9] = substrate: C[C@@H](CO)C(=O)C(=O)O; assay: purified protein; assay type: biochemical, Escherichia coli; conditions: NADPH 0.16 mM, 50 mM Tris-HCl pH 8.0, 30 °C
# purified protein [10] = substrate: CC[C@@H](CO)C(=O)C(=O)O; assay: purified protein; assay type: biochemical, Escherichia coli; conditions: NADPH 0.16 mM, 50 mM Tris-HCl pH 8.0, 30 °C
# purified protein [11] = substrate: C=CC[C@H](CO)C(=O)C(=O)O; assay: purified protein; assay type: biochemical, Escherichia coli; conditions: NADPH 0.16 mM, 50 mM Tris-HCl pH 8.0, 30 °C
# purified protein [12] = substrate: O=C(O)C(=O)C1(CO)CCC1; assay: purified protein; assay type: biochemical, Escherichia coli; conditions: NADPH 0.16 mM, 50 mM Tris-HCl pH 8.0, 30 °C
# purified protein [13] = substrate: O=C(O)C(=O)CCO; assay: purified protein; assay type: biochemical, Escherichia coli; conditions: NADPH 0.16 mM, 50 mM Tris-HCl pH 8.0, 30 °C
# purified protein [14] = substrate: CC(C)[C@@H](CO)C(=O)C(=O)O; assay: purified protein; assay type: biochemical, Escherichia coli; conditions: NADPH 0.16 mM, 50 mM Tris-HCl pH 8.0, 30 °C
# purified protein [15] = substrate: COCC[C@H](CO)C(=O)C(=O)O; assay: purified protein; assay type: biochemical, Escherichia coli; conditions: NADPH 0.16 mM, 50 mM Tris-HCl pH 8.0, 30 °C
# purified protein [16] = substrate: O=C(O)C(=O)C1(CO)CCCC1; assay: purified protein; assay type: biochemical, Escherichia coli; conditions: NADPH 0.16 mM, 50 mM Tris-HCl pH 8.0, 30 °C
# purified protein [17] = substrate: C[C@H](CO)C(=O)C(=O)O; assay: purified protein; assay type: biochemical, Escherichia coli; conditions: NADPH 0.16 mM, 50 mM Tris-HCl pH 8.0, 30 °C
# purified protein [18] = substrate: CC[C@H](CO)C(=O)C(=O)O; assay: purified protein; assay type: biochemical, Escherichia coli; conditions: NADPH 0.16 mM, 50 mM Tris-HCl pH 8.0, 30 °C
molecule,measurement,setting,value
O=C(O)C(=O)C1(CO)CCC1 [3k],KPREcoli ^b / ksi^app,[1],6.6 ± 1.5 mM
"CC(C)(CO)C(=O)C(=O)O [3j, ketopantoate]",KPREcoli ^b / ksi^app,[1],3.9 ± 1.3 mM
O=C(O)C(=O)C1(CO)CCCC1 [3l],KPREcoli ^b / ksi^app,[1],28 ± 4 mM
"DpkAPsyrin (Δ1-piperidine-2-carboxylate/Δ1-pyrroline-2-carboxylate reductase) (Pseudomonas syringae pv. tomato) (protein, recombinant wild type; tags and purification only in the supplement) MSASHADQPTQTVSYPQLIDLLRRIFVVHGTSPEVADVLAENCASAQRDGSHSHGIFRIPGYLSSLASGWVDGKAVPVVEDVGAAFVRVDACNGFAQPALAAARSLLIDKARSAGVAILAIRGSHHFAALWPDVEPFAEQGLVALSMVNSMTCVVPHGARQPLFGTNPIAFGAPRAGGEPIVFDLATSAIAHGDVQIAAREGRLLPAGMGVDRDGLPTQEPRAILDGGALLPFGGHKGSALSMMVELLAAGLTGGNFSFEFDWSKHPGAQTPWTGQLLIVIDPDKGAGQHFAQRSEELVRQLHGVGQERLPGDRRYLERARSMAHGIVIAQADLERLQELAGH",Km,purified protein [2],19 ± 4 mM
same,kcat,purified protein [2],1.1 ± 0.1 min⁻¹
same,kcat/Km,purified protein [2],0.967 M⁻¹ s⁻¹
same,Km,purified protein [3],14 ± 2 mM
same,kcat,purified protein [3],0.23 ± 0.01 min⁻¹
same,kcat/Km,purified protein [3],0.267 M⁻¹ s⁻¹
same,Km,purified protein [4],11 ± 1 mM
same,kcat,purified protein [4],3.00 ± 0.02 min⁻¹
same,kcat/Km,purified protein [4],4.67 M⁻¹ s⁻¹
same,Km,purified protein [5],33 ± 7 mM
same,kcat,purified protein [5],1.7 ± 0.2 min⁻¹
same,kcat/Km,purified protein [5],0.867 M⁻¹ s⁻¹
same,Km,purified protein [6],7.5 ± 1.9 mM
same,kcat,purified protein [6],0.0024 ± 0.0002 min⁻¹
"KPREcoli (ketopantoate reductase from E. coli) (Escherichia coli K-12) (protein, recombinant wild type; tags and purification only in the supplement) MKITVLGCGALGQLWLTALCKQGHEVQGWLRVPQPYCSVNLVETDGSIFNESLTANDPDFLATSDLLLVTLKAWQVSDAVKSLASTLPVTTPILLIHNGMGTIEELQNIQQPLLMGTTTHAARRDGNVIIHVANGITHIGPARQQDGDYSYLADILQTVLPDVAWHNNIRAELWRKLAVNCVINPLTAIWNCPNGELRHHPQEIMQICEEVAAVIEREGHHTSAEDLRDYVMQVIDATAENISSMLQDIRALRHTEIDYINGFLLRRARAHGIAVPENTRLFEMVKRKESEYERIGTGLPRPW",Km,purified protein [7],9.5 ± 1.7 mM
same,kcat,purified protein [7],89 ± 6 min⁻¹
same,kcat/Km,purified protein [7],157 M⁻¹ s⁻¹
same,Km,purified protein [8],0.4 ± 0.2 mM
same,kcat,purified protein [8],4457 ± 813 min⁻¹
same,kcat/Km,purified protein [8],179000 ± 76500 M⁻¹ s⁻¹
same,Km,purified protein [9],12.9 ± 1.4 mM
same,kcat,purified protein [9],348 ± 15 min⁻¹
same,kcat/Km,purified protein [9],450 M⁻¹ s⁻¹
same,Km,purified protein [10],3.0 ± 0.5 mM
same,kcat,purified protein [10],926 ± 37 min⁻¹
same,kcat/Km,purified protein [10],5230 M⁻¹ s⁻¹
same,Km,purified protein [11],9.5 ± 1.5 mM
same,kcat,purified protein [11],90 ± 5 min⁻¹
same,kcat/Km,purified protein [11],157 M⁻¹ s⁻¹
same,Km,purified protein [12],1.5 ± 0.5 mM
same,kcat,purified protein [12],6791 ± 1022 min⁻¹
same,kcat/Km,purified protein [12],73800 M⁻¹ s⁻¹
same,Km,purified protein [13],4.9 ± 1.2 mM
same,kcat,purified protein [13],7.1 ± 0.5 min⁻¹
same,kcat/Km,purified protein [13],25 M⁻¹ s⁻¹
same,Km,purified protein [14],13 ± 2 mM
same,kcat,purified protein [14],1021 ± 69 min⁻¹
same,kcat/Km,purified protein [14],1280 M⁻¹ s⁻¹
same,Km,purified protein [15],18 ± 3 mM
same,kcat,purified protein [15],5.9 ± 0.5 min⁻¹
same,kcat/Km,purified protein [15],5.67 M⁻¹ s⁻¹
same,Km,purified protein [16],0.2 ± 0.1 mM
same,kcat,purified protein [16],1166 ± 67 min⁻¹
same,kcat/Km,purified protein [16],92800 M⁻¹ s⁻¹
same,Km,purified protein [17],4.8 ± 0.4 mM
same,kcat,purified protein [17],5350 ± 138 min⁻¹
same,kcat/Km,purified protein [17],18500 M⁻¹ s⁻¹
same,Km,purified protein [18],7 ± 1 mM
same,kcat,purified protein [18],700 ± 34 min⁻¹
same,kcat/Km,purified protein [18],1770 M⁻¹ s⁻¹
